Experimental findings from publication PMC5078793 are described below.

The target of the experiment is LTBP-1 C-terminal region (UniProt Q14766). Put plainly: SPR; Biacore; LTBP-1 C-terminal region immobilised by amine coupling on CM5 (methods); 10 mM HEPES pH 7.4, 0.1 M NaCl, 0.5 mM CaCl2, 0.005% P20. On the technique in general: Surface plasmon resonance follows binding to a sensor surface in real time, without labels.
Sequence of LTBP-1 C-terminal region (Q14766 24-1721): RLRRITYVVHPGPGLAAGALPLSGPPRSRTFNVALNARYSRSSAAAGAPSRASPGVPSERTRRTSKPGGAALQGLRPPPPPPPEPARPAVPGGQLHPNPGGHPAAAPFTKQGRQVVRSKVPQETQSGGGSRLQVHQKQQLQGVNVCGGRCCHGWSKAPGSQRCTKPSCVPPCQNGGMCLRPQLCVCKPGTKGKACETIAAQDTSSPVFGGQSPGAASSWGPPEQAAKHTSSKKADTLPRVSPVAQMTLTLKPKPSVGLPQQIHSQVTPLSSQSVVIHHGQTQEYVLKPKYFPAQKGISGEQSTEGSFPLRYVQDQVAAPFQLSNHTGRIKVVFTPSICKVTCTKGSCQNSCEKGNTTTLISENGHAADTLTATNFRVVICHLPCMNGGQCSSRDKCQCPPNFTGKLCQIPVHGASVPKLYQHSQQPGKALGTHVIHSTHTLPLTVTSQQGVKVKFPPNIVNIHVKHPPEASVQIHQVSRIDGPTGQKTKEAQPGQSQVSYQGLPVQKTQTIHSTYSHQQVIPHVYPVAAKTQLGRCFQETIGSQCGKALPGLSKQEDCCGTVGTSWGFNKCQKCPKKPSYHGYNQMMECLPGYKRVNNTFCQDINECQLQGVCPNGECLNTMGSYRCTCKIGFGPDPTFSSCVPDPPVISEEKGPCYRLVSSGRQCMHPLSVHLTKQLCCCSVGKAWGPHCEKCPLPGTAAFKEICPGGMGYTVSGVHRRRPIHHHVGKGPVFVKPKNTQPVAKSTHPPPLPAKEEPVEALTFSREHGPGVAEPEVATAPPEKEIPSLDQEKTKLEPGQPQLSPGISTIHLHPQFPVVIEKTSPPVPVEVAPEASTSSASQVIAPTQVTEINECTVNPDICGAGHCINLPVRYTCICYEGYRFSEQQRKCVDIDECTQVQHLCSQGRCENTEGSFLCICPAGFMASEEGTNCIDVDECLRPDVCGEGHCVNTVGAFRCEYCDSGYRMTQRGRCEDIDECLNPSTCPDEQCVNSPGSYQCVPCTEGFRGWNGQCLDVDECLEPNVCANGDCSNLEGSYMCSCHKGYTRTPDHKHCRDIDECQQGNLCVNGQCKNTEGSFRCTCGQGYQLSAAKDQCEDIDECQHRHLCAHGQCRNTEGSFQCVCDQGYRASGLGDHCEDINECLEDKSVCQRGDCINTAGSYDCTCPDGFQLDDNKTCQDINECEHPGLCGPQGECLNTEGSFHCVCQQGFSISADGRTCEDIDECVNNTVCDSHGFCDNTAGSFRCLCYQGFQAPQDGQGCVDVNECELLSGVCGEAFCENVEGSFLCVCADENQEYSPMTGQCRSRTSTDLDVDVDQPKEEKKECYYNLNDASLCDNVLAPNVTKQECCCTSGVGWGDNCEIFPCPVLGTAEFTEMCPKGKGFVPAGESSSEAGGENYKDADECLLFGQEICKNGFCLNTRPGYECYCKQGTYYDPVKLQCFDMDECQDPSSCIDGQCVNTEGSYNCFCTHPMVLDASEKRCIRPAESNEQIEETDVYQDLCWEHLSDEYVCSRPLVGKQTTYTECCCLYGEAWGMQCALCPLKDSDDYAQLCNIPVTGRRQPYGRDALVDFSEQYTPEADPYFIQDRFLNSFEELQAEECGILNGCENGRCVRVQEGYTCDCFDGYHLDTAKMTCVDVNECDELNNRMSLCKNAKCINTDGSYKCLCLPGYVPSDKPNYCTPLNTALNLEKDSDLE

B1: ADAMTS6 C-terminal region (domain or fragment)
chain: DGGWGPWSLWGECSRTCGGGVSSSLRHCDSPAPSGGGKYCLGERKRYRSCNTDPCPLGSRDFREKQCADFDNMPFRGKYYNWKPYTGGGVKPCALNCLAEGYNFYTERAPAVIDGTQCNADSLDICINGECKHVGCDNILGSDAREDRCRVCGGDGSTCDAIEGFFNDSLPRGGYMEVVQIPRGSVHIEVREVAMSKNYIALKSEGDDYYINGAWTIDWPRKFDVAGTAFHYKRPTDEPESLEALGPTSENLIVMVLLQEQNLGIRYKFNVPITRTGSGDNEVGFTWNHQPWSECSATCAGGVQRQEVVCKRLDDNSIVQNNYCDPDSKPPENQRACNTEPCPPEWFIGDWLECSKTCDGGMRTRAVLCIRKIGPSEEETLDYSGCLTHRPVEKEPCNNQSCPPQWVALDWSECTPKCGPGFKHRIVLCKSSDLSKTFPAAQCPEESKPPVRIRCSLGRCPPPRWVTGDWGQCSAQCGLGQQMRTVQCLSYTGQASSDCLETVRPPSMQQCESKCDSTPISNTEECKDVNKVAYCPLVLKFKFCSRAYFRQMCCKTCQGH
One may read the Kd as a measure of binding affinity in units of concentration. High values mean a looser complex, low ones a tighter complex. In the case of B1, the Kd turned out to be 59 nM.
